The subject of series [1] is T1, RovS (Streptococcus agalactiae NEM316), ORF:d252635c.
T1 sequence: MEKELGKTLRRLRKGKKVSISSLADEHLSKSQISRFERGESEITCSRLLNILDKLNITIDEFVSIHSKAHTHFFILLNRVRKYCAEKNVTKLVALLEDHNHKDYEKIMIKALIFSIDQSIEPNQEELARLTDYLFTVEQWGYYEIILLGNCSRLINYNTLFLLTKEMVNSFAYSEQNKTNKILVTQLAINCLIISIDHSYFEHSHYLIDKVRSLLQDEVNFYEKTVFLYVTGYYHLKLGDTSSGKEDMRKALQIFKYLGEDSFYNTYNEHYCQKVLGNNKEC
The experiment in a line: EMSA. For orientation: In EMSA bound probe runs differently from free probe, usually more slowly.

The test system is the same in series [2]. The experiment in a line: competition.

Regarding “CTAACTTTTTTTCCTTTACGTAATCTTCTTAGTGTTTTTCCTAATTCTTTTTCCATTTTTATTTAAAAGACCCTTTAAATCCATTATATAATACAAGTACAAAATAGAAAATCAGAAAGG (double strand) [Pshp without the motif probe]”, the binding result in series [1] (part of the binding motif deleted) is on record as “no binding”.
“GCAATTTATTATTAATTTGTATGTTTAAAATTAAATAGTTGATATCTAAAACATGATATTTTTAAATTTTCCTTTAATATTATAAAGCATGATAGATAGTCATACTAACATTAAGATTTACAATGAGGTAATAGTATATT (double strand) [PfbsA probe]”: the binding entry in series [1] is “no binding”.
In the case of “ATTAGTGACTTCTTTCATTGAAAATGATAGAATATAGGTGTATGGGAAACTTCCCAAAAATATTTAAGGAGATGTTTAGAAATGACTGCAACTAAACAACATAAAAAAGTTATCCTCGTTGGTGATGGTG (double strand) [PldhL probe]”, the binding entry in series [1] and in series [2] was “no binding” in each case.

These data come from PMC4324310.
